Biological target: the molecule itself
Test: phase separation

B1: FUS low complexity N-terminal domain (residues 1-163) (domain or fragment, human, UniProt P35637 1-163, looked up)
chain: MASNDYTQQATQSYGAYPTQPGQGYSQQSSQPYGQQSYSGYSQSTDTSGYGQSSYSSYGQSQNTGYGTQSTPQGYGSTGGYGSSQSSQSSYGQQSSYPGYGQQPAPSSTSGSYGSSSQSSSYGQPQSGSYSQQPSYGGQQQSYGQQQSYNPPQGYGQQNQYNS
binding result: binds

From publication PMC4609301 (Molecular cell, 2015)
